Assay results published in the domain aggregation screens of Martell et al. (2025).

Assay: soluble fraction after stress (log2 fold change); higher = more stays soluble; pooled small domains, quantitative proteomics
Settings: stress: 75 degC
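Also: 20 min heating vs room temperature control held 20 min.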

| Sequence | soluble fraction (log2) |
| --- | --- |
| HMRRVEDVRTALEHFAAARNTTPMAMTLDQRREAMRELAASGLLNLRRALSEVAQTLGVARSTVYTYLP | -1.39 |
| HMRSAKEYKAIREEIYRFIGAYITKHVYAPSNKEIAEAVGISGTTVHRHLIDMIDEGILETD | -2.65 |
| HMRSFGTLRRLPSGRYQASYAGPDLRRHAAPTTFETKLDAEGWLRDEHRMIERDEWTAPAARSQLK | -0.0721 |
| HMRSFRIGGLVEQGSIARDGQSLTVRFAVTDLAHKIPVTYTGLLPDLFKEGKGVVAEGKLGPDGVFHASQV | -0.0831 |
| HMRSPIWKSITATLTAEIAGGQYRAGDKLPTEAELSQRFGVNRHTLRRALAEMAGAGLVVARRGAGVFVQG | -2.5 |
| HMRSPLYVQIKQHILGDIRKGVWKPGEKLPTELDLAERFGVSVGTVRRAMGGLEDEGIISRREGSGTFVRT | -0.458 |
| HMRSSAATMFGRIALKNKLVDEATLKKVMSELPAGADLGAVLVKQGLISEQHAEAIQKKITAHMKSAP | -0.114 |
| HMRSSALDEIPGIGKQRKKNLLVHFTSVAKIKEASLDEIAAVPGMNRKAALVVVEFFQNQERE | -2.28 |
| HMRSSNEAVSQRRDKILDYISATGRTSTEIVAKEFGVSVMTARRDLLYLMEKRLISKSSSGLFKVDNN | -3.09 |
| HMRTIGDSVYEKIKYDIVHLTLKPGEKLSEASLAEKYGISKAPIRVALRKLQEEGLIVIRPQSGSIVSP | -1.19 |
| HMRTMRHLSVPRQETQQILSQLKAEFALPQGARVQPDPSDSKRTLIPVKEGAESELLSRYPVVHAEP | 0.0613 |
| HMRTNNEITSYKLKSGKKRWKFQTYLGLDDKGQKVSVTRQGFRTYNEAISEYNKLRAQGTQGYQ | -0.948 |
| HMRTPTGVQAYLSSGLIKGIGEKTAAAIVDKFGTDALSVIETDPERLLEIPGITPNKLREILESYNQH | 0.204 |
| HMRTVAERYGLTAGQWRVLELLTQGKTNRQIAEMLDVTEGTVKIHVSAIFKAMKVTNRTQALLLAKKH | -1.28 |
| HMRTYDPQAVELNNKALELINQGRLDSALLVYDQSIKTDKTYYFPHIGKSIIYMRKKDWNKAFEETQQAIK | 0.493 |
| HMRVDLATEVHSVLRRMMSRPPTLQEIRADLDGEEPGRVHEALDALRAAFRGGRGPKNPYESLKRSLRRG | -0.636 |
| HMRVDLVQRLARHGLSPRQSAVAGGVLRGLDNGEISRQLYIAEQTVKDHLHEIYHRLGVHTRTELLIKVLG | -2.22 |
| HMRVGISRNSGAAGIAVWLTQKLGRPVAKTEEIVHILKNWVDDQYEAGRVTNIGDGELWSVYKQMEAEE | -0.953 |
| HMRVTEIDYGAFMKMIEEKNIGEVKVEDYEIVFTDKDNKNIYKTGIMDDPDLTQRLYNSGAVFA | 0.0318 |
| HMRWGDPLTVKVPSFIGQTKDDIAKQHYPFRIEWHGEGAKIGSQLPEVDSVIKQDGTIHLYLV | -0.0635 |
| HMRYFDDEELNNKFLEFLSMRKKIRKPVRTDRALKALLKKLHELSGGDVGLMKQIIDQSLDKEWLGLFEL | -0.889 |
| HMRYNPETTAGRRGLIIKMLDEYGQVNVNELSRYFNVSEVTVRNDLAYLERKNLLIRARGGAIKTE | -1.91 |
| HMRYWVKSETDFLIENRGKYSYQEFADMLGRSYAVVYDKMHQLKIDYTKEELEIFDEKHKAQMREKQQR | -1.96 |
| HMSAAPVGPWALSEFLDAVEKDSVERVTFDDAGKALVAVDADGGRHRVEILPSEGPEILAALRKHSVQFA | 0.181 |
| HMSADEVSQQLTSEQTKSKSYQALLQAYAAYQQKSFDDAALELQNVQQDVLSDSQKTIYNTISQAVNS | 0.26 |
| HMSADISIGYNIPKGSVTVSAGGRTLQEGIDYDINYDLGTIKITNQAILNAGLPVQVNFENNAS | 0.849 |

| Sequence | soluble fraction (log2) |
| --- | --- |
| HMSADLVYLRKRLQDAIAQLPENMRTAYTLFQIANRSIREISELTGASESLVKVRIHRAKGKLQKQLEDLK | -1.43 |
| HMSAEDYLERIHELIESKGTAHVADIAQSLGVGKPSVTSMVQKLADEGYLNYEKYRSLTLTDSGRSIA | 0.165 |
| HMSAEDYMEMIYRLSQENGFTRVNDLASALNVQPPSVTRMIQKLAELNLIKYEKYGVIMLQPYGIEVGRSL | -2.65 |
| HMSAEGPALADWVVRDAHSIGAKITNSVAQLLIDRVGHNQQLLHNELQKLALVQTDISAELVKTMSHY | -0.643 |
| HMSAETRSWTDAQGNQTQAVLRGFDGGDVLLQNAAGKTLRVPVKNLSEDDQRYVVLNISTLID | -0.0549 |
| HMSAITLDQARAIALDHAGISEGDATFVKEQTGTSSYEIEFYSGSNEYDYEIDKATGAILNVDR | 0.22 |
| HMSALAEELIKKNQAMILTIKPRDTIWGIANRFQSPPSEKFINQIIELNQVDPYRLRIGQDLLIPLN | -0.984 |
| HMSALTDQQQRVLELVASGLVYKEVAAALSISEPTVKYHMGNILTRLHVKNRAQAIAAARQQGLL | -1.58 |
| HMSAMKYTSEVFQRLSRGQFISSNSIDAETRAIYSDIEENQQEYEDYFSKIDFLLSSGDGFYYFSRK | -2.38 |
| HMSAMSPTEVGERLRLAREAVRMTQKQAADAISVARTTLVAIEQGQRRVRIDELQQLAKTYGVSVNAILR | -2.27 |
| HMSAPAKKPKIKVDLSKVHAGTIVRHKGYGLGQVKGIDGAIIVVTFDGVDKKFQFPGGFENGFLFLTED | -1.48 |
| HMSAPLKELGNDPESGKPIVVKDGRFGAYVTDGETNATLRKTDAVESLTPERAAELLAEKRAKG | 0.493 |
| HMSAPTAFSERELELLAGMRRGASNKAMAEQLFISVNTVKYHRANLMRKLGARDRNEALEVAARLG | 0.404 |
| HMSAQDLIVKTDATQVEARVLEISPEQIRYKRFSNPDGPTYVLPVDAVDYIRYANGETDSFR | 0.076 |
| HMSASAIYVRPKDVKEPEEVADYLSGVLELDREKLYKKITDKSQWIALIERKVDNDIAFDIRNKKFKGIEI | -0.301 |
| HMSASIAEGTVIMLENTTNIRSGMSEDSSKVGTAYAGEKVTVVMSYAEGWTKVKWNGETGYIKTALLQL | -0.607 |
| HMSASNSIDFANRMIYNKNQVAVFNFGKHMGRPVLEVLKSDPSYYDWMMKGDFPMDTKRKLTEIKLQGF | -0.793 |
| HMSATPQRMTIIDALDSSGKNLSAYELLDLLNDKGQLFNISTIYRVLDFWIEMGIVHKINSSNTYL | 0.15 |
| HMSATQDAAIAVRIRDILSELDGYEDVTVTVTSGIVTMRGTTLDSEKIARLNDLTGRVEGVVAIENSVTET | -0.207 |
| HMSAVIGTATVTTSSGSLNLRESASLYSRVIRTIPRGATVDVLSRDTSWSRVRYAGSEGYVLNQYLTFQT | -2.1 |
| HMSDAGMNQIGDMFRAPDLMAKLAMNPATREYVSQPDFLAMMEEVKRNPSALNNHLRDPRMMNVLSVAM | -0.271 |
| HMSDAPLLSIRSLAVAFDGTRVVDGVSFDVARGEVVALVGESGSGKTVTGLSLLDLVPPPGRRVGGEV | 0.278 |
| HMSDDAVVRMRVPEDALGLSLRETDFRQRFGVYVLAIETRDGKLLAPPDPQRPLGKDDVLVVIQKR | -0.847 |
| HMSDDLLTGLDAYSRGDWTTATASFERVLTTADPNNRTEALYWLVMSETSAQNYQRALNYANTFL | -0.707 |
| HMSDDSTIVELLASSLRRDIAFGTLLPDQKLKLNELRTRYGGSIHSMRETLRILSAEGLVEATAQRGFRVT | 0.0731 |
| HMSDEIQLQFIQISIFKDHPWADMQIKDMNIIPDLLIVMILRDGERIIPNGNTRIMPGDMVIITAMSANT | -2.54 |

| Sequence | soluble fraction (log2) |
| --- | --- |
| HMSDESALIAAIEKAIAAQPETAEKVRNGHLPAAGALIGSVMKETKGQADAARVRELLLGLLGQ | 0.441 |
| HMSDESRAEIVSSAKRLFQQYGYKKTTVSDIAKAMGKVKSAIYYYFPDKESLLRAVIDEEVG | 0.0318 |
| HMSDFEASDPALLREGMRVQHLNFGKGTVITIEGAGANKKASVAFDGVGTKQLMLRFARLKIIYE | -2.59 |
| HMSDFKDIILKLRNEQGFTQEKLADVLGTSKSTVGMWEMGVRFPSKELYEAIADYFNVDIDYLYGRTDIR | -0.83 |
| HMSDGYETLVNMAKPFLNNSKQITENDITDAVNTVSVMLKKRYDMTDEDIRKAVSELLHFYA | -0.305 |
| HMSDIDHIAGRRIRQARLNAGMTLETLASQAGISKALLSKIENSKVSSPLATFSKISKVLGVPLSDLLKE | -0.748 |
| HMSDILALMPGTIKQILVAPGDSVKRGQTVIIMESMKMELTIAAHRDGVVKRIPVEQGGQVEKGMRLLELE | -1.86 |
| HMSDIPEGYMSRVQLGDEWGIHLATFDKAVIAVKEKLGTVVFIDKSNNTTAGYSPEQQTIIYDWLAEN | -2.22 |
| HMSDKNVYGKYKNVFLSDEEFSELKQFYPNDWSDRIETLSEGIELKGYKYKNYLLAIKKWAEYEGQKAD | -0.47 |
| HMSDKPIFIDTAGIAALSAIGFSKYQATIIFNYIKKGGAIYTVKDLAKIYSIDQKTIDLTQSKIIFS | 0.365 |
| HMSDKPRYYINGNTLFISDKSVKKVLFSDLSGRSILHTTETAINIATFRGAHILTVIYTDGSTKSEVIF | -1.47 |
| HMSDLLYAHPTEKGFQLVNVTQKVVMVILKTAAPNVYTVKGKNAIVFKEGNSWFYSENHNKKLLNIK | -3.18 |
| HMSDLQTGDINQDGTVDEKDLSLLHSYNLELIKTISNAADLNEDGVINGLDEAYLKRLFLQNSDP | -0.122 |
| HMSDLTEVIVKFSGDIQPIRQDLDAQVEILLKGYAIITLSPNKIGRLYSYPQIESIEIPKNLYI | -2.73 |
| HMSDPASLQRRLMSDPELTARILDSPFTRSLLDDPNLLRQMVNANPQLRRAMDANPQLRHAL | -0.267 |
| HMSDPEAFIRQTVAAAEPEGIALSVLGKRVRGKFRTFKLRDLGYAQFRPYLGDLDGIKVEQRDGQSYARLD | -1.03 |
| HMSDPSRKADFIAALSSLGGSAGNGKLREQLGWDEPTYDAVKQTLLDEGAITNGRGRGGSVALAG | 0.976 |
| HMSDPTDRLVLEAALKALGEEERQVVLLHAASGLKHREIARDLGLPLSTVLSRYSRALKKLQRYLTEEGVH | -1.2 |
| HMSDPVDDLLLRISQQAGVARGQLVAELNMLVQDRFGGNLRHEAAAVLMAKRYGIEFRDLLPALREHLVKN | -0.804 |
| HMSDPVKQVAMRILDLREISDYTVDKMAEVLNVPVEEYRKYESGEVDMPISFLVKIGEVFHVDMTELLTG | -1.55 |
| HMSDQTYVKDPETGEIFRVHKRVWETGEFWRDPVWGNILGGVERGSELERLLREEGWRPLQQSLEGFPEQ | -0.284 |
| HMSDRESYGRYRNVSLTLSEYESLKNEYPLYADKYIERLSEYMETAGKHYNNHYATILSWLSKDIK | -0.201 |
| HMSDSGLPLPRFVSLGDDRVNARAGPGFRFPINWVYLRKNFPVEVIDEFGHWRRIKDIDGIEGWIHLSML | -0.793 |
| HMSDTSELESIIAQIIEDNPKSIEDIGAGNQKAYGFLTGQVMKATKGQANPQVANKIIRELVARKLE | ≥ 1.04 |
